Ends that are not written are not given here. * marks the point of attachment. Bz = O=C(c1ccccc1)*
Tests used:
Assay in all cases: crystal structure; protein (15 mg/ml) mixed with peptide at 1:5 molar ratio; sitting-drop vapor diffusion at 25 °C
Settings in all cases: both partners purified
[1] = target: T1, Hst2_(8-294) (S. cerevisiae, UniProt P53686 8-294)
T1 construct: Construct of the crystal structures; source: E. coli Rosetta, purified (Ni-NTA, on-bead ULP1 digestion, SEC); not shown: 6*His-Sumo, N-terminal, cleaved
T1 sequence (P53686 8-294): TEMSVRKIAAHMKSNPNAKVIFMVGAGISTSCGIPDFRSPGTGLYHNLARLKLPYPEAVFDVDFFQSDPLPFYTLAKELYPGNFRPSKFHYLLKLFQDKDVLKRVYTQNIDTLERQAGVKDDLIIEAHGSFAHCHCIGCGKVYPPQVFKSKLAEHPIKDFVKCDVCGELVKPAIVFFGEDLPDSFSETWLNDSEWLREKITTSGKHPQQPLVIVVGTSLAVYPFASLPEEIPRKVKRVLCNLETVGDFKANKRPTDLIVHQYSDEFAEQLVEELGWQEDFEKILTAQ

[2] = target: T2, Taf14_(YEATS) (S. cerevisiae, UniProt P35189 2-137)
T2 construct: Taf14, S. cerevisiae, YEATS domain, residues 2-137; also called Taf14_(2-137); YEATS domain of Taf14; source: E. coli Rosetta, purified (Ni-NTA, on-bead ULP1 digestion, SEC); not shown: 6*His-Sumo, N-terminal, cleaved
T2 sequence (looked up): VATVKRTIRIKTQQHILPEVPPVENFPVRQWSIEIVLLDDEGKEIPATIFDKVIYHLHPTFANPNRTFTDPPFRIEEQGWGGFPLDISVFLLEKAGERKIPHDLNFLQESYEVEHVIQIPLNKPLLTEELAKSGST

[3] = target: T3, Sas5_(YEATS) (S. cerevisiae, UniProt Q99314 2-139)
T3 construct: also called YEATS domain of Sas5; source: E. coli Rosetta, purified (Ni-NTA, on-bead ULP1 digestion, SEC); not shown: 6*His-Sumo, N-terminal, cleaved
T3 sequence (looked up): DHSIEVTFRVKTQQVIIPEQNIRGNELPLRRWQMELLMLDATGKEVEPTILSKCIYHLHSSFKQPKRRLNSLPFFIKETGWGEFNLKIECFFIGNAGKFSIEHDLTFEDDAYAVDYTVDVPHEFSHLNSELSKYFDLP

[4] = target: T4, Sth1BD (S. cerevisiae, UniProt P32597 1248-1359)
T4 construct: also called Bromodomain from Sth1; source: E. coli Rosetta, purified (Ni-NTA, on-bead ULP1 digestion, SEC); not shown: 6*His-Sumo, N-terminal, cleaved
T4 sequence (looked up): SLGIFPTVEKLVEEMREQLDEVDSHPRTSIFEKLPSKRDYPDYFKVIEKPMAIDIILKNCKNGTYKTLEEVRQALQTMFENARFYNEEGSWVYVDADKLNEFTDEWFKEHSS

B1: H3_(5-14)K9bz (peptide)
peptide: QTARK(Bz)STGGK
notes: histone H3, residues 5-14; also called benzoylated H3 peptide; source: synthetic peptide
B1: binds [1].

B2: H3_(5-13)K9bz (peptide)
peptide: Ac-QTARK(Bz)STGG
notes: histone H3, residues 5-13; Peptide crystallised with Taf14_(2-137); also called H3K9bz (Ac-QTARKbzSTGG); source: synthetic peptide
B2: binds [2].

B3: H3_(18-37)K27bz (peptide)
peptide: KQLASKAARK(Bz)SAPSTGGVKY
notes: histone H3, residues K18 to K36; extra tyrosine residue (Y37) at the C-terminus designed for concentration determination by UV spectrometry; source: synthetic peptide
B3: binds [3].

B4: H3K14bz(TARKSTGGKbzAPRKQLASY) (peptide)
peptide: TARKSTGGK(Bz)APRKQLASY
notes: histone H3, residues 6-22; C-terminal tyrosine (Y23) that is not in H3 at this position; also called H3K14bz peptide of the Sth1BD crystal; source: synthetic peptide
B4: binds [4].

— publication PMC8927147, “Global profiling of regulatory elements in the histone benzoylation pathway” (Nature Communications, 2022)
